Reference: patent US20070092933A1 (AVIDIS, published 2007)

How the values were obtained:
[1] = molecular target: the molecule itself; experiment: gel filtration (S75 26/60), self-association of monomers

Protein	binding result [1]	increase of turbidity at 650 nm (insulin disulphide reduction assay) (insulin)
db-C4bp fusion protein (downstream box peptide fused N-terminal to the 57 amino acid core domain of the human C4bp alpha chain) (other, Expressed in the cytosol of E. coli C41(DE3); Predicted monomer size 7491.5 Da; Recovered as an oligomer of about 60-67 kDa by gel filtration, with disulphide bonds between the monomers; also called native db-C4bp; product of plasmid pAVD 77) MASMNHKGSETPEGCEQVLTGKRLMQCLPNPEDVKMALEVYKLSLEIEQLELQRDSARQSTLDKEL	binds	–
DsbA-C4bp fusion protein (human C4bp core fused to the C-terminus of the E. coli DsbA protein) (protein) AQYEDGKQYTTLEKPVAGAPQVLEFFSFFCPHCYQFEEVLHISDNVKKKLPEGVKMTKYHVNFMGGDLGKDLTQAWAVAMALGVEDKVTVPLFEGVQKTQTIRSASDIRDVFINAGIKGEEYDAAWNSFVVKSLVAQQEKAAADVQLRGVPAMFVNGKYQLNPQGMDTSNMDVFVQQYADTVKYLSEKKETPEGCEQVLTGKRLMQCLPNPEDVKMALEVYKLSLEIEQLELQRDSARQSTLDKEL	–	the DsbA present in the DsbA-C4bp fusion protein is still active, and the activity is directly comparable to the activity of soluble DsbA
DsbA (soluble DsbA of E. coli) (protein) AQYEDGKQYTTLEKPVAGAPQVLEFFSFFCPHCYQFEEVLHISDNVKKKLPEGVKMTKYHVNFMGGDLGKDLTQAWAVAMALGVEDKVTVPLFEGVQKTQTIRSASDIRDVFINAGIKGEEYDAAWNSFVVKSLVAQQEKAAADVQLRGVPAMFVNGKYQLNPQGMDTSNMDVFVQQYADTVKYLSEKK	–	the activity is directly comparable to the activity of soluble DsbA
